The values that follow are results of earlier work, collected in patent US6204360A, “Retro-inverso thymosin alpha 1 hybrids” (USA Universe Bioengineering, Inc., priority 1999, dated 2001).

No end group written: not given here.

For this data set the following is noted: Rost, Int. J. Clin. Pharmacol. Ther. 37:51, 1999.

Take “thymosin alpha 1 (SDAAVDTSSEITTKDLKEKKEVVEEAEN; ends and bridges not checked; UniProt P06454 2-29, looked up) [TM-alpha1, 28 amino acid acidic peptide purified from thymosin fraction V; immunomodulator]”: the half-life in vivo result is “short half-life in vivo”.
